The target in test [1] is T1, recombinant human γD-crystallin (human), P07320.
T1 chain: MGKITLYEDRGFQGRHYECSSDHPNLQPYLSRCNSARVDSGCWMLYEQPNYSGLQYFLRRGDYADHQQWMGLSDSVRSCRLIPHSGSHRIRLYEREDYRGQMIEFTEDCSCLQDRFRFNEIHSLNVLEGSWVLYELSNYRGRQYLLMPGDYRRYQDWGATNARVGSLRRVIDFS
Put plainly: reducing SDS-PAGE; 1 mg/ml HGDC in 5 mM sodium phosphate pH 7.0, UV-C irradiated (254 nm, 1,850 μW/cm^2) for 10-60 min; 15% gel, sample buffer with β-mercaptoethanol; band intensities by Image-J. Particulars: remark: other sources report otherwise.

The target of test [2] is T1, recombinant human γD-crystallin …. In words: non-reducing SDS-PAGE; 1 mg/ml HGDC in 5 mM sodium phosphate pH 7.0, UV-C irradiated (254 nm, 1,850 μW/cm^2) for 10-60 min; 15% gel, sample buffer without β-mercaptoethanol; band intensities by Image-J. The following applies: remark: other sources report otherwise.

B1: recombinant human γD-crystallin, P07320 1-174 (natural protein)
chain: T1 chain
As for B1, in test [1], the HGDC polymerization (%) with β-ME, 10 min UV-C turned out to be 6.66%; the HGDC polymerization (%) with β-ME, 20 min UV-C was 15%; the HGDC polymerization (%) with β-ME, 30 min UV-C amounted to 25.4%; the HGDC polymerization (%) with β-ME, 40 min UV-C was 29.8%. Also, in test [1], the HGDC polymerization (%) with β-ME, 50 min UV-C stood at 30.1% and the HGDC polymerization (%) with β-ME, 60 min UV-C is 31.5%. In test [2], the HGDC polymerization (%) without β-ME, 10 min UV-C came out at 7.31%; the HGDC polymerization (%) without β-ME, 20 min UV-C amounted to 17.6%; the HGDC polymerization (%) without β-ME, 30 min UV-C came out at 30.6%; the HGDC polymerization (%) without β-ME, 40 min UV-C was 42%. In test [2], the HGDC polymerization (%) without β-ME, 50 min UV-C stood at 51.3% and the HGDC polymerization (%) without β-ME, 60 min UV-C came out at 53.6%.

The values are drawn from paper PMC3008712.
